Values of other authors as cited in US10472401B2, “Peptides and combination of peptides for use in immunotherapy against ovarian cancer and other cancers” (immatics biotechnologies GmbH, priority 2015, dated 2019).

Tested on: ovarian cancer
Settings: clinical studies

B1: abagovomab (antibody, chains of the INN, looked up, V domains shown)
VH: QVKLQESGAELARPGASVKLSCKASGYTFTNYWMQWVKQRPGQGLDWIGAIYPGDGNTRYTHKFKGKATLTADKSSSTAYMQLSSLASEDSGVYYCARGEGNYAWFAYWGQGTTVTVSS
VL: DIELTQSPASLSASVGETVTITCQASENIYSYLAWHQQKQGKSPQLLVYNAKTLAGGVSSRFSGSGSGTHFSLKIKSLQPEDFGIYYCQHHYGILPTFGGGTKLEIK
notes: anti-CA-125 antibody
clinical results in ovarian cancer patients: promising results in phase II and III studies
